EC50 and IC50 data for 1 molecule are collected here from patent US20260028402A1 (published 2026).

Test [1] has as its target T1, full-length mouse CD100 protein MusCD100 on cells (mouse, UniProt O09126 24-861).
T1 chain: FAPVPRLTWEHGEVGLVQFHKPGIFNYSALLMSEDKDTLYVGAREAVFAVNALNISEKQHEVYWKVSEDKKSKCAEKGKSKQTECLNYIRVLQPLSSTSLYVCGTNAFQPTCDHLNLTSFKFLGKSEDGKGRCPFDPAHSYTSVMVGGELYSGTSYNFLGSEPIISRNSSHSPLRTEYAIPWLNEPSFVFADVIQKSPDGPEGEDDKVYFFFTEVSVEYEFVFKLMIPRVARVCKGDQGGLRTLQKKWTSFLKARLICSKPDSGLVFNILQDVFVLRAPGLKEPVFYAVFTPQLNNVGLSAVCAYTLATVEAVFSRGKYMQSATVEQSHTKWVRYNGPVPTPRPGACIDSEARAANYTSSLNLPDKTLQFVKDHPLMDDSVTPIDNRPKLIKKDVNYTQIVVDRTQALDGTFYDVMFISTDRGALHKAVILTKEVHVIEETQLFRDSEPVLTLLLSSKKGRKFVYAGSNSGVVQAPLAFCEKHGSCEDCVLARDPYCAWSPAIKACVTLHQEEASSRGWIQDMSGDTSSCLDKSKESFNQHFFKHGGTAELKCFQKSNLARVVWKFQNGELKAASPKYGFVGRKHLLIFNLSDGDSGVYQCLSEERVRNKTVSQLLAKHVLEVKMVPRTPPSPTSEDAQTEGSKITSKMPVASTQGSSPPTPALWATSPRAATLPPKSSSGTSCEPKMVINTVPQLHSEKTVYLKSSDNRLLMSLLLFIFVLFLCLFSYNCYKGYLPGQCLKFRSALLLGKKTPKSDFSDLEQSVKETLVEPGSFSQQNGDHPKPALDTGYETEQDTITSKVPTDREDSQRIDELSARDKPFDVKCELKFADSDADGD
Put plainly: FACS. For orientation: A flow cytometer gives signals particle by particle.

In test [2] the target is T1, full-length mouse CD100 protein …. The test is described as follows: FACS.
For test [3], the target named is CynoCD100-HEK293 (cynomolgus monkey). The test is described as follows: FACS.
The target of test [4] is T2, full-length human CD100 protein HuCD100 on cells (human, UniProt Q92854 22-862). Put plainly: FACS.
Test [5] has as its target T1, full-length mouse CD100 protein …. The test is described as follows: FACS.
Test [6] concerns the target T2, full-length human CD100 protein HuCD100 …. The test is described as follows: FACS. This is another data set of the same source.
Test [7] has as its target T3, MusCD100-His (mouse, UniProt O09126 24-733).
T3 chain: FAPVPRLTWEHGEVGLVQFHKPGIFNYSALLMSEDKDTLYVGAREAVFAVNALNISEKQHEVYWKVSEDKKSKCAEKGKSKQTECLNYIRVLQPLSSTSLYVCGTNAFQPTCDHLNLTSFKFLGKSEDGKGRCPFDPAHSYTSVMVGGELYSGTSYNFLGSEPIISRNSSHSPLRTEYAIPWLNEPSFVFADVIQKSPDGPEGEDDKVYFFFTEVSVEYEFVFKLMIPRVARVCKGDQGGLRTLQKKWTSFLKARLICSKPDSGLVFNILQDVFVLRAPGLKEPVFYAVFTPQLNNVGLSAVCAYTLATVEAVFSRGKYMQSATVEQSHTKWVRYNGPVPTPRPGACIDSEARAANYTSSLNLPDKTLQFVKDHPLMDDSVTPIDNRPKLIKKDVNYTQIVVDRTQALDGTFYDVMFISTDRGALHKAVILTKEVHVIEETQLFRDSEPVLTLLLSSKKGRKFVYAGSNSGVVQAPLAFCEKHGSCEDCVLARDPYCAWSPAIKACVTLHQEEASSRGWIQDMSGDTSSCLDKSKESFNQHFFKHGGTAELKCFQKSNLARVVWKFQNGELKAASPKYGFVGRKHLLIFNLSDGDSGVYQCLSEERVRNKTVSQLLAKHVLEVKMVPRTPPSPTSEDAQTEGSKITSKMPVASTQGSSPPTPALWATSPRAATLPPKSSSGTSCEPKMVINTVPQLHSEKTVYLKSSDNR
Put plainly: ELISA; FIG. 5B.

Test [8] addresses CynoCD100-His (cynomolgus monkey). Put plainly: ELISA; FIG. 5C. For orientation: In an ELISA, binding on a coated surface is turned into a signal by an enzyme label.
Test [9] deals with T3, MusCD100-His. Put plainly: ELISA; FIG. 5E.
Test [10] has as its target HuCD100-His (human, UniProt Q92854 22-734). Put plainly: ELISA; FIG. 5A.
Test [11] concerns the target T2, full-length human CD100 protein HuCD100 …. The test is described as follows: FACS; Jurkat cells.
The target is the same in test [12]. Put plainly: FACS; HuPBMC cells.
The target of test [13] is T4, HuCD100-Fc (in-house prepared) (human, UniProt Q92854 22-734, biotinylated in the Plexin binding and blocking assays (sites not given)). The test is described as follows: ELISA; first HuCD100-Fc row.
Test [14] has as its target T4, HuCD100-Fc (in-house prepared). Put plainly: FACS blocking; HuPlexin-B2-HEK293, FIG. 12D.
Test [15] has the same target. Put plainly: FACS blocking; blocking of binding to HuPlexin-B1-HEK293.

Read-outs that look alike come from different tables or passages of the source.

B1: Pepinemab (antibody, V domains shown)
VH: QVQLVQSGAEVKKPGSSVKVSCKASGYSFSDYYMHWVRQAPGQGLEWMGQINPTTGGASYNQKFKGKATITVDKSTSTAYMELSSLRSEDTAVYYCARYYYGRHFDVWGQGTTVTVSS
VL: DIVMTQSPDSLAVSLGERATINCKASQSVDYDGDSYMNWYQQKPGQPPKLLIYAASNLESGVPDRFSGSGSGTDFTLTISSLQAEDVAVYYCQQSNEDPYTFGQGTKLEIK
Turning to B1, the EC50 in test [1] stood at 0.274 nM; in [2], 0.276 nM; in test [3], 0.271 nM; in test [4], 0.138 nM; in [5], 0.307 nM; in test [6], 0.426 nM. Further, the EC50 in test [7] is 0.205 nM; in test [8] it was 0.117 nM; in test [9] it was 0.143 nM; in [10], 0.0383 nM; in test [11] it was 0.275 nM; in [12], 0.412 nM. Further, the response in [13] was half-maximal at 0.0469 µg/mL (EC50). Besides, the IC50 in [14] is 2.06 nM; in test [15] it was 3.56 nM.

By EC50 is commonly meant the midpoint of the concentration-response curve. A word on the IC50: it is the concentration needed to halve the response being measured. A high value points to weaker potency in that assay.
